# Test results as given in the DeepSol protein solubility set.
# Assay: soluble on expression in E. coli; label from the status in PepcDB or PDB records
row,Sequence,soluble on expression in E. coli
1,MDAPKAGYAFEYLIETLNDSSHKKFFDVSKLGTKYDVLPYSIRVLLEAAVRNCDGFLMKKEDVMNILDWKTKQSNVEVPFFPARVLLQDFTGIPAMVDFAAMREAVKTLGGDPEKVHPACPTDLTVDHSLQIDFSKCAIQNAPNPGGGDLQKAGKLSPLKVQPKKLPCRGQTTCRGSCDSGELGRNSGTFSSQIENTPILCPFHLQPVPEPETVLKNQEVEFGRNRERLQFFKWSSRVFKNVAVIPPGTGMAHQINLEYLSRVVFEEKDLLFPDSVVGTDSHITMVNGLGILGWGVGGIETEAVMLGLPVSLTLPEVVGCELTGSSNPFVTSIDVVLGITKHLRQVGVAGKFVEFFGSGVSQLSIVDRTTIANMCPEYGAILSFFPVDNVTLKHLEHTGFSKAKLESMETYLKAVKLFRNDQNSSGEPEYSQVIQINLNSIVPSVSGPKRPQDRVAVTDMKSDFQACLNEKVGFKGFQIAAEKQKDIVSIHYEGSEYKLSHGSVVIAAVISCTNNCNPSVMLAAGLLAKKAVEAGLRVKPYIRTSLSPGSGMVTHYLSSSGVLPYLSKLGFEIVGYGCSTCVGNTAPLSDAVLNAVKQGDLVTCGILSGNKNFEGRLCDCVRANYLASPPLVVAYAIAGTVNIDFQTEPLGTDPTGKNIYLHDIWPSREEVHRVEEEHVILSMFKALKDKIEMGNKRWNSLEAPDSVLFPWDLKSTYIRCPSFFDKLTKEPIALQAIENAHVLLYLGDSVTTDHISPAGSIARNSAAAKYLTNRGLTPREFNSYGARRGNDAVMTRGTFANIKLFNKFIGKPAPKTIHFPSGQTLDVFEAAELYQKEGIPLIILAGKKYGSGNSRDWAAKGPYLLGVKAVLAESYEKIHKDHLIGIGIAPLQFLPGENADSLGLSGRETFSLTFPEELSPGITLNIQTSTGKVFSVIASFEDDVEITLYKHGGLLNFVARKFS,soluble
2,DIMVVVDAGHGGKDPGAVGSRGEREKDVVLSIAQLLAKRLKREKGFDVRLVRNDDFFVPLRKRVEFAHKSNADMFISVHADAAPRLTASGASVFALSEGGATSATARFMAQRENGADLLGATSLLNLKDKDPMLAGVILDMSMNATIAASLQLGHTILGSLEGITTLHQKRVEQAGFAVLKSPDVPSILVETGFISNSRDSQRLVTARHQQAVADGLFDGLQRYFQRNPPMDSHLAWMQAQKQEQQA,not soluble
3,MAVHTDPFKKYLYKIGNRTSGSDKHIRKFKTFLTISAYSNILVISMIIDQLRIQKNIPDEEFDAIYPFEIRELSERHWTSVFVAKTAADFLCNQRPVKVLDIGSGAGKFCFVGAALHPSSQFHGIDIRENFIQLSNNLKEQYAVANVSFFQQDALEMDLTGYGGIYFFNSFQEKIDPTSVIDHNSKVSVEQYIQYTNHIFNELNKVPAGTKLVTYYSEDFCVPGSFRLLATHFNGELKFYLKEMEPDESDEQLNQQDISEHIDRHTFLSE,not soluble
4,MGSDKIHHHHHHFDLEPSSSVPTDKVYKTADDFNVAVIGCYSKLQGQVSYFTECCEYRSDNLSLSAPTAGTQDRYDIDQFADKASNGILESAWANFNNGVYRCNLVLDKIDAADFDATLKKQYKGEALFVRALTYFNMYRLWGGIPMTDKVVTVAEALKIGRSSEQQVFDFLTGDLNQVINENMLPSSYTGTDTGRATSGAAMALLGKIYLTFHKWTEARNVLSQLIGRYSLMPTPDKVFDVDNKMNDEIIFAVRFNKDVEGEGHGYWFSIINLTDDTNQTKALKECYKDGDKRKDLITYVKVEDKVCVMNKFKDLKSATYNTVGNDQIILRYADVLLMYAEALNEISYSNSQTSDAMVALNAVHTRAGLSPVQITELADQDSFRKAIMLERQQEFPYEGHRWFDLVRMGGAKEAMKAEGHTIQDFQFLYPIPKTELERINNTELLWQNPGY,not soluble
5,MGSDKIHHHHHHMQDCDVRIFYIFKSLYDSGSATFVSQQHSVSPSKVSRYIAEMREVYNDSLFIRRKTHFVPTKKAREIYPKICEIIELIEGLSANRHELEVKKECVIAVPATLCVGLPEHLNRVIKQEGLDISLKVMSSHREICTKVINGEICIAITNRACTQTMDCNPKHSNLLHVEPISVGEHVYVVSAATGAIWQEKISLDNIAKYPFVVTQVSGFNDEKDPFEVYCEQRGLALNVFLKTQNLASMIEALMSENTISFIGPNSAAAFIAKVPSLRVEKLENCEYQRLHEAMHKPTYSMIYLKRNIDVIPPLIKSEVLRFISDSVCDF,not soluble
6,MESVRRGKLMKNKKIKFDVYLNGIAYHCIKCGFCCDAPTVTKKDLAKIAGYLKIPFDEVLKRYVRFFNGYIGELKEVGGKCIFLDKKTKKCKIYKVRPLICRLRPYSVQVRNGKLTLTYDIWFLRYCRGLYLGDGKVEDEYFKYAELVLKYLGFEEGVDEEEFKRAKERLLEESLKYRKKKDLEHHHHHH,soluble
7,MRKIIKGREPDAWLKYRCTPGAVYQRKPALADSLLLEQGYVCAYCEKRIDVQDLRVEHIKPRSQYPAQQLSYSNMVACCSGQSQGSAHCDCSKKDEEITLNLFTDALFLSISYKHDGTISSANKSWNDDINITLNLNCLSLKENRKLALEGLLEIIKKEDYSQGVLKRLKARYEAKDKGHKFAEYRGIILYYIDKKLSP,not soluble
8,MSLSHMANEMLLDIDGMDFVEDEDMGAEGELQFSFDPVSNAPMVSFPSTQQPDLEKLRFKFAPVLSRSFAFNGGSRTGTLYGVQVPYVDNSKEFSQYAAKLFEVYKSLGADKQFAVPTIGLINHTSTLEHNQTVNLALEAIVSELELFIESLKYSGRQQRLVDLEECLSILNCLKTVQFTLDSEEENSRAKFIDSLISWVNRTDGEPSEAVIAKVLGDGKQTPILENPYFWRLLCQLIIRGLFDQAVAAIEKSELLSYLADKCSATHTMVQDMVNLLQGYPRELEPVYREWKDLVLQLHLNWSQSEHKISIELASSLEDCLLIMCGNKSKIIYYSKTWYECYCGLMLYYIPSLQLSEEYLQLVLKEHPLDVTSPWEQACVSIITGKIYSILPVLDSLDSCTAAFTAAICEAKGLLENDLLDDGGLEVSNTGDEMFGLGNTMASYLLNQFALSIVTYEDKNLWAVAIGIIYLTPNYSDAAKRMMIAELLPHYPFQTNDDIEWMLTICAKWKLPQIARTIYRVLGQEALYLNNIIEAISNFSKAGEFEWVKHYSWMIFEASILQGAPLEDEVVNSIVTGEYESAIPKELVEVMVTPAMKQSLSPYAVLFNFFRATEDGRWAEALKLLLSLIEFTYLPPQYLILLIGRFLYPLFLQDESKMFKEQDVLRVIKALEQFHDRPDEITTAMYKELLVKVDTLPKDPLNLINAIRTKLSLKLCHQFMEGHHHHHH,not soluble
9,MSLKKSDATGGEVASAEPIAKIPAPAGKAWTETFSVTPDGGYLLGNPDAPIKLIEFGALSCSHCAEFSEKGFPKLRDEYIASGRVSYELRLFLLNALDMPAVLLATCGAPEAVIPLSEQFWAWQPNMFSNLQKDEAAFQQISNLPAEKRFAGIAQLGGLSEFFASRGIAAAQGATCLADTAKATRLATVNDQWGKEYDITGTPTFFLNGSKTGVATWAELEPMLQKAGAREGHHHHHH,soluble
10,MSRGFALLGWLNPAQRQAVTAPCGHLCINAAAGTGKTTTVAARILWLQLVQDVPPEAILAVTFSRAARAHLLDRVEAFTRVLGAGGAVPTFTLHGLAYRILRIAIGAGETWLRPGFGVISVGRDRINPLLQEHAADLLGDLSDPWDLPTRVEQYSRALDAVRQGCADIEEGLPLEPDDLPDGVLYVPARIETPNLRKVWRRYNRMLRARNYLDYPGMVTEAILALYREGKTLQRARANLEYIIVDEYQDTSRAQEELIQLLVGERTSVTVVGDSDQAIYTFNGADIGNILHFAERILETGSALPVLEPVHLVENYRSSACILDAANRVLDRIHGPGRKQLVPYPGTVDEPVESYRRRNLEVVRVHAGSLDQAAFWAASEIARLVTEEGIEPSDIAVLVRKDTEHAPQGRAVRLALERLGIRAEEQERDPIRSSHVYEVVRDLCGDPDYYGEDIGDMIERIAAGEFRDALGDVTPDEATALLREAQAAGAEFAGEVVDFVFEQGAPDATPASLEGVQVRTIHSAKGLEFRVVFLMYLSDREFPHGAHPDVAEERRLYYVGLTRAQERLYVLGQPGVRNEDFFGAIDGSGVVTVHVEPWRDRSPSSEEAVDDETLRLIQEARRRQHDMFLRRP,soluble
11,MPIPKSAKSDYTKEQKDLVGNICQCKDFYKILNVDKKASPDEIRIAFRKRIREVHPDKCKHPSATEASKVVNNAFSLLMDPAKRRQYDLQNAETSNENLYKRCNRNKNQRKQEYSNTQRQNHKKSEPSNGKRNEQNSSFKQDHNSKNHQSNHQKTKNKKSNPYSNQNNFNNTRKDYREEKSGFSWNTGSA,not soluble
12,MHIGQFTRQYPAETAFKVQSNPWKNSPEPFLPMSTQQPKSWADVGKVAGPPRNYHHPYEVKPFEAIDEKNDVFSTMGHWNSEQKQSRQQHQQYQQNQYQARQHQYYQNPPPFYQPEQPVHYQSAQQDVFDNIGEWDNSTPIPSQISPLQLDLTLTTPLPTFQPYPSTRSYSLESPTTSVTSNEEKNSWKTIELILNQKSSRSPSITERLSPVDFGPWTSNL,not soluble
13,ITEQTGQLVYDYNIEKDIADVAGNIEELTGFTSEELGNINLKLWTSRIHPEDLNRFLENHKKYLEPDRKSYRIEYRFRKKNGEYIYLEENWVSPEGDRKSSVKRVLGVIKNITERKQA,not soluble
14,GPGSMELTEEERGLLILRLHQVLRPFLLRRTKADVDSTLRMTFHHMWCPLSAMQQRLLCMLREQRRIPTVLGMAGGYSGKSSSSSEADNEEEEEAAGAADAAAHTSTFPAAEIGADESTGCTPYIAVAALAADALHGKASPDLDPLQARNETAMPRDRLAELVWRHLPALASTESSDILRCAVQQDRALGLTSAGVSESSARLVCNHAFLLPFFSQVLHRHGLDEVTQEGCNDADAAAVATSESSVVGAEAAERCGAAGLTLACSGKFLVLHLLLSRLYVAQRKVVLFTHWLNCVDLLVDYLYSRGWADHAEVLTGGSSEAERLTSVRRFREDPGCLFFLLSIKAGGCGINLQAAHMVVLVDRDYTVTNEDQALARVYRIGQRYTVRAVYLATTDSSEQHVAQRATAKNKPRQAIINDGVYQVTTASEGERVGETGEAVTAAKFADPPSHAYNELDTSELWRSISGATTPPSPTTAMQEARRPECDGTASGAARPAPFSLPPPEAFWVALSCLVESMDELVLTEEDRAAATVRSAEEERRSMGCTPANSAAARLLATRPPRSTAELHLRLQGGRDEMFSGPQRERGVAPSLSGTAASDAYLGVWKQSAEAPTTGDRTRSHTPSEPQAAALAAAPQPTPRSAPVTDPLQNSALFWLEYSHLLRIAGRGPYLLSDSLRVAVTNDTRKNDPEERVRRRQRRDRRVAKRLRLASVDVPDDFREACWAKEGIDDDAEVAERYLRFLDANAGKRRQRRRKDAG,not soluble
15,MSLKISAIELYEYDLTYSHGTYVMSKGRSAKQQPSNLVRVITDSGIEGWGEAATLSGNYLPVFAGSTRAALRELAPLLIGQDPRGSTHLQRLMSSLLMGQANAKNAFDVACWDIFGKSVDLPISALIGGVLSTELPIFEAVPLSSTEESLDYIGKRSAQGIMRYQIKIGDDPVKDAARARAIVKAFPDIFFFVDANAGYTLLEAQIAMRALDDTNLYVEQPCRDIADCAMLRKISGLPIVLDEAVLTHADLYRAKYEVSAAAVNIKLGRLGGITPAVAMRNAAQDLGMHFCIEDVWGGDVTAAAVSHVAASAFPENLMHTSFFNDWTNEHVAGYQPRSRNGRGAAPTGPGLGITVDRSLLGAPVASFSEGHHHHHH,soluble
